The results in this text go back to paper PMC6889417, “Derepression of LOXL4 inhibits liver cancer growth by reactivating compromised p53” (Cell Death and Differentiation, 2019).

This experiment deals with wild-type p53, endogenous (human (endogenous in SK-Hep1, HepG2), UniProt P04637 1-393). In words: cell-based or functional assay.
Chain of wild-type p53, endogenous (P04637 whole entry): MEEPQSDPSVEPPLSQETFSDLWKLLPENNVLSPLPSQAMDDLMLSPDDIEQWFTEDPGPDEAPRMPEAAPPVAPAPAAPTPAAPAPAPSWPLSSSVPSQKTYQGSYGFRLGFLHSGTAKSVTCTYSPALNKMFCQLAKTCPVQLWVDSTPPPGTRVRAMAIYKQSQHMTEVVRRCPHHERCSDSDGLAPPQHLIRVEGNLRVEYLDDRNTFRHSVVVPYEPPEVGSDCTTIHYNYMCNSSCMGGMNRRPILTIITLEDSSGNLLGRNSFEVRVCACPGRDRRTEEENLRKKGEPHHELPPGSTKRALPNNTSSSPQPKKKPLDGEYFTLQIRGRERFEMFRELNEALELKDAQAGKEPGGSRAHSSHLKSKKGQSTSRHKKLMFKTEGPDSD

B1: lysyl oxidase-like 4 (LOXL4), endogenous (natural protein, UniProt Q96JB6 25-756, looked up)
chain: QSLGTTKLRLVGPESKPEEGRLEVLHQGQWGTVCDDNFAIQEATVACRQLGFEAALTWAHSAKYGQGEGPIWLDNVRCVGTESSLDQCGSNGWGVSDCSHSEDVGVICHPRRHRGYLSETVSNALGPQGRRLEEVRLKPILASAKQHSPVTEGAVEVKYEGHWRQVCDQGWTMNNSRVVCGMLGFPSEVPVDSHYYRKVWDLKMRDPKSRLKSLTNKNSFWIHQVTCLGTEPHMANCQVQVAPARGKLRPACPGGMHAVVSCVAGPHFRPPKTKPQRKGSWAEEPRVRLRSGAQVGEGRVEVLMNRQWGTVCDHRWNLISASVVCRQLGFGSAREALFGARLGQGLGPIHLSEVRCRGYERTLSDCPALEGSQNGCQHENDAAVRCNVPNMGFQNQVRLAGGRIPEEGLLEVQVEVNGVPRWGSVCSENWGLTEAMVACRQLGLGFAIHAYKETWFWSGTPRAQEVVMSGVRCSGTELALQQCQRHGPVHCSHGGGRFLAGVSCMDSAPDLVMNAQLVQETAYLEDRPLSQLYCAHEENCLSKSADHMDWPYGYRRLLRFSTQIYNLGRTDFRPKTGRDSWVWHQCHRHYHSIEVFTHYDLLTLNGSKVAEGHKASFCLEDTNCPTGLQRRYACANFGEQGVTVGCWDTYRHDIDCQWVDITDVGPGNYIFQVIVNPHYEVAESDFSNNMLQCRCKYDGHRVWLHNCHTGNSYPANAELSLEQEQRLRNNLI
For the molecule B1, the “expression of the p53 target genes PIG3 and BAX (quantitative real time PCR) after 5-aza-CR (5 μM, 16 h) in WT cells against 2DR cells” value was above 10 fold.
